Assay results as given in paper PMC10700544.
Where “and” joins values, the source holds several entries; their conditions need not be identical. Identical values can stand only once.

Legend:
[1] = biological target: RhpA with C-terminal Strep-tag, from pExp-MBP (Helicobacter pylori) (UniProt O25029); experiment: mass photometry; Refeyn TwoMP; 20 mM sodium phosphate pH 7.2, 300 mM NaCl; final concentration of 50 nM
[2] = biological target: full-length RNase J (H. pylori strain B128) with C-terminal 8xHis-tag, from pExp-xMBP-CHis (Helicobacter pylori strain B128) (UniProt P56185); experiment: as above
[3] = biological target: full-length RNase J (H. pylori strain B128) with C-terminal 8xHis-tag, from pExp-xMBP-CHis (Helicobacter pylori strain B128) (UniProt P56185); experiment: cryo-EM structure; mixture of RNase J (1 µM) and RhpA (2 µM) in 20 mM sodium phosphate pH 7.2, 500 mM NaCl, 0.5 mM TCEP; Quantifoil R1.2/1.3 grids, 200 kV Talos Arctica
[4] = biological target: His-tagged RNase J K649Q (pET28a+) (Helicobacter pylori) (UniProt P56185); experiment: AUC; sedimentation velocity of His-tagged purified proteins, alone or mixed; 25 mM Tris-HCl pH 8, 300 mM NaCl, 0.5 mM TCEP; 20 °C; 230 nm; c(s) analysis with Sedfit
[5] = biological target: His-tagged RNase J K649A (pET28a+) (Helicobacter pylori) (UniProt P56185); experiment: as above
[6] = biological target: His-tagged RNase J K649A (pET28a+) (Helicobacter pylori) (UniProt P56185)
[7] = biological target: His-tagged RhpA (pET28a+) (Helicobacter pylori) (UniProt O25029); experiment: AUC; sedimentation velocity of His-tagged purified proteins, alone or mixed; 25 mM Tris-HCl pH 8, 300 mM NaCl, 0.5 mM TCEP; 20 °C; 230 nm; c(s) analysis with Sedfit
[8] = biological target: His-tagged RNase J wild type (pET28a+) (Helicobacter pylori) (UniProt P56185); experiment: as above
[9] = biological target: His-tagged RNase J K649R (pET28a+) (Helicobacter pylori) (UniProt P56185); experiment: as above

RhpA with C-terminal Strep-tag, from pExp-MBP (from UniProt O25029 1-492) (enzyme)
stoichiometry N [1]: 2

full-length RNase J (H. pylori strain B128) with C-terminal 8xHis-tag, from pExp-xMBP-CHis (from UniProt P56185 1-689) (enzyme)
stoichiometry N [2]: 4 | stoichiometry N [3]: 4

His-tagged RNase J K649Q (pET28a+) (from UniProt P56185 1-689) (enzyme)
stoichiometry N [4]: 4 and 2

His-tagged RNase J K649A (pET28a+) (from UniProt P56185 1-689) (enzyme)
stoichiometry N [5]: 4

His-tagged RhpA (pET28a+) (from UniProt O25029 1-492) (enzyme)
half-life of the structured RNA substrate with the complex between RhpA and the RNase J K649A variant (value of the text, differs from the table) [6]: 6.7 min | stoichiometry N [7]: 2

His-tagged RNase J wild type (pET28a+) (from UniProt P56185 1-689) (enzyme)
stoichiometry N [8]: 2 and 4

His-tagged RNase J K649R (pET28a+) (from UniProt P56185 1-689) (enzyme)
stoichiometry N [9]: 4 and 2
